Test results from patent US7977317B2, “Compositions and methods for modulating blood-brain barrier transport” (Raptor Pharmaceutical Inc., priority 2001, dated 2011).
One block for each molecule: values may come before it.

Key:
[1] = tested on: BBCECs; test: Binding of [125I]-p97 to BBCECs with saponin treatment (Scatchard); design: species or system bovine; conditions: 200-fold molar excess, after saponin treatment (FIG. 12b)
Procedure: FIG. 12 illustrates the Binding of p97 to BBCE cells. FIG. 12a, p97 binding experiments were performed with BBCECs that were either pre-incubated in Ringer-Hepes solution or pre-treated with saponin. BBCECs were then incubated for 2 hrs at 4° C. with [^125I]-p97 (25 nM). At the end of the incubation, the filters were gently washed with cold PBS and then the radioactivity associated with the ECs was quantified; FIG. 12b, The binding of [^125I]-p97 was also performed with increasing concentrations of unlabelled p97 following saponin treatment. The results were expressed as the percentage of the [^125I]-p97 binding measured in the absence of unlabelled p97; FIG. 12c, The results were also transformed with a Scatchard plot and expressed as the ratio of bound p97/free p97 as a function of the bound p97 (n=5).
Transcytosis and binding experiments. […] At the end of the experiment, [^125I]-p97 was quantitated in 500 μl of the lower chamber of each well by TCA precipitation. We also measured p97 in 50 μl of the lower chamber of each well by SDS-PAGE according to the method of Laemmli (Laemmli, U.K. Nature; 227: 680-685 (1970)). Proteins were separated on 7.5% acrylamide gels, stained with Coomassie Blue, dried and analysed by densitometry. […] After 2 hrs at 4° C., ECs were gently washed, and the [^125I]-p97 attached to the ECs was quantified in a liquid scintillation counter. […]

[2] = tested on: BBCE; test: Transcellular co-localization of p97 with clathrin in BBCE; assay type: cell-based, bovine; conditions: clathrin versus caveolin
Excerpt: FIG. 21 depicts the transcellular co-localization of p97 and clathrin turning transcytosis.
Transcellular localization of p97 and clathrin was examined in BBCE as the p97 moved from the luminal to abluminal side of the BBB model (FIG. 21). The data are indicative of a co-migration of p97 and clathrin. As a control for the effect of the Alexa label, the behavior of p97 and p97-alexa were compared. (data not shown).

[3] = biological target: Megalin (Homo sapiens, UniProt P98164); conditions: Tables 1-3; cited from earlier work
Sequence of Megalin (P98164 26-4655, species assumed): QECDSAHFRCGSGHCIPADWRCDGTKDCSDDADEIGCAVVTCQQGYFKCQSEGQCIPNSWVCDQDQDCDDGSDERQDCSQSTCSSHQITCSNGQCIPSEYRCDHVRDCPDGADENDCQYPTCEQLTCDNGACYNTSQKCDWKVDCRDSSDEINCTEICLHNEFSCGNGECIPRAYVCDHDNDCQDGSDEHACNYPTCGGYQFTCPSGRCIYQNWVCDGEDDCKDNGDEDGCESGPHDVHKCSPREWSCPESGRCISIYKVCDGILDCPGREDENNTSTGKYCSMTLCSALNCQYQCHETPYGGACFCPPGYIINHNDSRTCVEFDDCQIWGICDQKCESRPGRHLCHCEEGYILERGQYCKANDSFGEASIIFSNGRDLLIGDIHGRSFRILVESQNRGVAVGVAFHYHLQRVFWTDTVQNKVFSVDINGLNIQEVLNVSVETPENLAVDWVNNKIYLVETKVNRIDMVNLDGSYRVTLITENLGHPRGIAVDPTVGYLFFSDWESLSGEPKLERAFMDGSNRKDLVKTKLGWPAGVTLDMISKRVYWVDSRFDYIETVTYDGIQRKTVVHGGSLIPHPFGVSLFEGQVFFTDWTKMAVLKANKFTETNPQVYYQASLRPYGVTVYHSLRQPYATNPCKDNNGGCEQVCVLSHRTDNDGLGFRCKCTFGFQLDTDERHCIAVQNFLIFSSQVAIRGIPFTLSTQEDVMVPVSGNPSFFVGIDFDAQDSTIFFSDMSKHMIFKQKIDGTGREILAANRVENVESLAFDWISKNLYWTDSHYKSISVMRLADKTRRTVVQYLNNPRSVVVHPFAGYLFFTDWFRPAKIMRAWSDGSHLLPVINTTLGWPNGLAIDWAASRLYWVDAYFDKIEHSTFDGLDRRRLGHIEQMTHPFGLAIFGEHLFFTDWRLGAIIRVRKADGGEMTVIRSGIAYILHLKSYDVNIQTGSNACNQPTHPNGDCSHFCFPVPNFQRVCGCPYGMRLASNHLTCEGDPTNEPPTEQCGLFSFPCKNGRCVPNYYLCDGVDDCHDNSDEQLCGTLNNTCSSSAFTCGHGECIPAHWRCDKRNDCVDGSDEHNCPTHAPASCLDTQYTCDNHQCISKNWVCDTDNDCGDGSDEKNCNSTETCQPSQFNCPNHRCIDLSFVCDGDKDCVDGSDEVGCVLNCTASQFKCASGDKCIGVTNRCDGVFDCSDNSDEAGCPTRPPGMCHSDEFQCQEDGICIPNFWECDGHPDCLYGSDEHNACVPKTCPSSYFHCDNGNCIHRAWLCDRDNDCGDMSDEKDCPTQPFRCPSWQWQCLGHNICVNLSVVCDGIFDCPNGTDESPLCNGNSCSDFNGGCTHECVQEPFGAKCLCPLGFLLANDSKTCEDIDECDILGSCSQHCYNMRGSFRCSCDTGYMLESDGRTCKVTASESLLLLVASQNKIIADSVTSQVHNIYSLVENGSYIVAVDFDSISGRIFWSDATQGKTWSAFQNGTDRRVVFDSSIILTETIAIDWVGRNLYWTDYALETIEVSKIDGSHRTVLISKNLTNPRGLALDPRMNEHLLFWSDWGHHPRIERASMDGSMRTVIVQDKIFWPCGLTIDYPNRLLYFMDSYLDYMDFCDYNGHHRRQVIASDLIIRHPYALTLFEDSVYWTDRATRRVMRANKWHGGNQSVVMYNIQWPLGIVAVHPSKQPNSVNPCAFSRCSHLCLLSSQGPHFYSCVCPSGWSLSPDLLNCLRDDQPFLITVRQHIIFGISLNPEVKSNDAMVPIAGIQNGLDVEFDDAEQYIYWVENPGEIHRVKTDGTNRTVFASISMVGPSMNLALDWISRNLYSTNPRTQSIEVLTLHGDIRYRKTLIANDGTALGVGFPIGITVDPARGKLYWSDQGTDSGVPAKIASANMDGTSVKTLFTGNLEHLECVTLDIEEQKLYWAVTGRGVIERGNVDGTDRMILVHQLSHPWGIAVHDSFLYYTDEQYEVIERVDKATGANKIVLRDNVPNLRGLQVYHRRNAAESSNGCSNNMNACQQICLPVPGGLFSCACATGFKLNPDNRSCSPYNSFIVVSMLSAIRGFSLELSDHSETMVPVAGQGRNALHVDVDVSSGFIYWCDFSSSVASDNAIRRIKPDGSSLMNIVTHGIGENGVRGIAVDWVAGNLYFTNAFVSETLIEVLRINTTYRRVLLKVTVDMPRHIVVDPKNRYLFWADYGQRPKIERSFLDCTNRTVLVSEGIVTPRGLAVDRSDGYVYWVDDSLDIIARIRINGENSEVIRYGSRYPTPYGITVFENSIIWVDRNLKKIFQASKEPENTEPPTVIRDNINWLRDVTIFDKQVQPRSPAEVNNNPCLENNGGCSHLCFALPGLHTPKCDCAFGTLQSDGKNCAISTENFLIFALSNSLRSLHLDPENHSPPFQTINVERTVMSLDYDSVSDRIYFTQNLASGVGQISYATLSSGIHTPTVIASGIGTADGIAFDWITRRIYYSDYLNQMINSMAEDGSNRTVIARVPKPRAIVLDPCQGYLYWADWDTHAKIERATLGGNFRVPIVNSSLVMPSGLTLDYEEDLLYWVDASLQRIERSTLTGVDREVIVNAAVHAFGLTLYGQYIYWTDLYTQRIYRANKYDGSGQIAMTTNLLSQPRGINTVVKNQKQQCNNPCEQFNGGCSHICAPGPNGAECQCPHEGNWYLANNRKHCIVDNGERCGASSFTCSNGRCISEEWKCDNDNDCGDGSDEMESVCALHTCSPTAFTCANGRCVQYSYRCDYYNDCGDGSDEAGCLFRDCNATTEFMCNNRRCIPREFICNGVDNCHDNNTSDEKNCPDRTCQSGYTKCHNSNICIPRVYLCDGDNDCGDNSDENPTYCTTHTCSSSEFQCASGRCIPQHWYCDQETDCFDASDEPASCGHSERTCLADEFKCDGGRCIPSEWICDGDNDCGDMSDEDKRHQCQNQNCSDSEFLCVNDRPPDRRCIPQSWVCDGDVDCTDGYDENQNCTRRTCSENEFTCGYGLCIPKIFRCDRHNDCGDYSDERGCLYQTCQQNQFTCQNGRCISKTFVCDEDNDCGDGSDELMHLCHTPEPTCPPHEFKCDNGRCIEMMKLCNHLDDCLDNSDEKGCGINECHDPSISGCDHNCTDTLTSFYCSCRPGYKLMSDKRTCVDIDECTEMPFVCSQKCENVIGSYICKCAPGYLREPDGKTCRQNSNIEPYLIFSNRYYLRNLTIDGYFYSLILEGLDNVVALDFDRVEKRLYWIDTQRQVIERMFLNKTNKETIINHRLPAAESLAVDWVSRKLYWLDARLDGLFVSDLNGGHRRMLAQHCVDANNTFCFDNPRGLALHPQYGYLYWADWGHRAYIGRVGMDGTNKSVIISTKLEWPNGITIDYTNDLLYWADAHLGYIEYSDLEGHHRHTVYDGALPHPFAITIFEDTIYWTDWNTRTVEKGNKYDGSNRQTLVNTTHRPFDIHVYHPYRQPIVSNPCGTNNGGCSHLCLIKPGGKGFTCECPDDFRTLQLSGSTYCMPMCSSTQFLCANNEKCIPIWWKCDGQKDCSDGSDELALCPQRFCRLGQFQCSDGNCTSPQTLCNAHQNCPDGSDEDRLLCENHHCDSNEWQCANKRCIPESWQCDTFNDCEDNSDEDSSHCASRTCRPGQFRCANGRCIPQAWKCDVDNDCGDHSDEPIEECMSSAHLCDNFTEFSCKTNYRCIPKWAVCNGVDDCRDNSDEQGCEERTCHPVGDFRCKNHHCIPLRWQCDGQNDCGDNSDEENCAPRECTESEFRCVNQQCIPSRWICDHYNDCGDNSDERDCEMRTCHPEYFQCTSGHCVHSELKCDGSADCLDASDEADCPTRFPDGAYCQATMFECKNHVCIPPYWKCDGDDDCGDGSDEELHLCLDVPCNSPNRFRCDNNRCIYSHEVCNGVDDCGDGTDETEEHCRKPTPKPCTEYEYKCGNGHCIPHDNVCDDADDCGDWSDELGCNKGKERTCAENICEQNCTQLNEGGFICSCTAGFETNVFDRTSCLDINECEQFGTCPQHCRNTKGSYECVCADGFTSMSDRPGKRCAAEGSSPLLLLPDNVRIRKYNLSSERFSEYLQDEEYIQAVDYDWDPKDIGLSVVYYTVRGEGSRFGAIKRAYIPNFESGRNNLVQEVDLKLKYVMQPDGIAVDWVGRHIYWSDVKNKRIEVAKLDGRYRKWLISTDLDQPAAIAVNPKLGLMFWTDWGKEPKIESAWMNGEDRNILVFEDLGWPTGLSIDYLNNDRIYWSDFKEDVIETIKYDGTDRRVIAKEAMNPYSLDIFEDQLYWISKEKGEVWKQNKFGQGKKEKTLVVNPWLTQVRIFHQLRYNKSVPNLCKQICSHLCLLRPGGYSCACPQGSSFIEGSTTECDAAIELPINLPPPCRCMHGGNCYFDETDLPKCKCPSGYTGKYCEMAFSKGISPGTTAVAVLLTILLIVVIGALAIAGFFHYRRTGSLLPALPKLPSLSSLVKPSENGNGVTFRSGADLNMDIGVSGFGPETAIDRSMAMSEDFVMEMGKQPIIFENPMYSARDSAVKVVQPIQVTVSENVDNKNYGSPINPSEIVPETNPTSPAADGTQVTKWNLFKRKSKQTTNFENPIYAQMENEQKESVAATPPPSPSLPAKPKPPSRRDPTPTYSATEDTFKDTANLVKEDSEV

Inhibition of radiolabel ([125I]-p97) binding by unlabelled p97 [1]: approximately 50%
B1: p97: recombinant human melanotransferrin (p97), provided by Synapse Technologies (protein, UniProt P08582 20-709, looked up)
Melanotransferrin: GMEVRWCATSDPEQHKCGNMSEAFREAGIQPSLLCVRGTSADHCVQLIAAQEADAITLDGGAIYEAGKEHGLKPVVGEVYDQEVGTSYYAVAVVRRSSHVTIDTLKGVKSCHTGINRTVGWNVPVGYLVESGRLSVMGCDVLKAVSDYFGGSCVPGAGETSYSESLCRLCRGDSSGEGVCDKSPLERYYDYSGAFRCLAEGAGDVAFVKHSTVLENTDGKTLPSWGQALLSQDFELLCRDGSRADVTEWRQCHLARVPAHAVVVRADTDGGLIFRLLNEGQRLFSHEGSSFQMFSSEAYGQKDLLFKDSTSELVPIATQTYEAWLGHEYLHAMKGLLCDPNRLPPYLRWCVLSTPEIQKCGDMAVAFRRQRLKPEIQCVSAKSPQHCMERIQAEQVDAVTLSGEDIYTAGKTYGLVPAAGEHYAPEDSSNSYYVVAVVRRDSSHAFTLDELRGKRSCHAGFGSPAGWDVPVGALIQRGFIRPKDCDVLTAVSEFFNASCVPVNNPKNYPSSLCALCVGDEQGRNKCVGNSQERYYGYRGAFRCLVENAGDVAFVRHTTVFDNTNGHNSEPWAAELRSEDYELLCPNGARAEVSQFAACNLAQIPPHAVMVRPDTNIFTVYGLLDKAQDLFGDDHNKNGFKMFDSSNYHGQDLLFKDATVRAVPVGEKTTYRGWLGLDYVAALEGMSSQQC
Co-localization during endocytosis/transcytosis [2]: co-localize with clathrin

B2: lactoferrin: lactoferrin (Lf), LRP ligand used as competitor (protein, UniProt P02788 20-710, looked up)
Lactotransferrin: GRRRSVQWCAVSQPEATKCFQWQRNMRKVRGPPVSCIKRDSPIQCIQAIAENRADAVTLDGGFIYEAGLAPYKLRPVAAEVYGTERQPRTHYYAVAVVKKGGSFQLNELQGLKSCHTGLRRTAGWNVPIGTLRPFLNWTGPPEPIEAAVARFFSASCVPGADKGQFPNLCRLCAGTGENKCAFSSQEPYFSYSGAFKCLRDGAGDVAFIRESTVFEDLSDEAERDEYELLCPDNTRKPVDKFKDCHLARVPSHAVVARSVNGKEDAIWNLLRQAQEKFGKDKSPKFQLFGSPSGQKDLLFKDSAIGFSRVPPRIDSGLYLGSGYFTAIQNLRKSEEEVAARRARVVWCAVGEQELRKCNQWSGLSEGSVTCSSASTTEDCIALVLKGEADAMSLDGGYVYTAGKCGLVPVLAENYKSQQSSDPDPNCVDRPVEGYLAVAVVRRSDTSLTWNSVKGKKSCHTAVDRTAGWNIPMGLLFNQTGSCKFDEYFSQSCAPGSDPRSNLCALCIGDEQGENKCVPNSNERYYGYTGAFRCLAENAGDVAFVKDVTVLQNTDGNNNEAWAKDLKLADFALLCLDGKRKPVTEARSCHLAMAPNHAVVSRMDKVERLKQVLLHQQAKFGRNGSDCPDKFCLFQSETKNLLFNDNTECLARLHGKTTYEKYLGPQYVAGITNLKKCSTSPLLEACEFLRK
Binding to Megalin [3]: Yes
